Reference: the nanobody polyreactivity screen of Harvey et al. (2022)

Experiment: yeast display, Sf9 membrane polyspecificity reagent, FACS + sequencing; frameworks hold sequencing errors
In short: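 In a synthetic yeast display library (Saccharomyces cerevisiae BJ5465), nanobody expression was induced with galactose for 36–48 hours. FACS gates were set low and high (top ~1%) using anti-HA fluorescence for expression and streptavidin fluorescence for binding of the Sf9 membrane reagent. Each polyreactivity label is drawn from the gate of origin.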

Row | Sequence | polyreactivity (PSR sort gate)
1 | QVQLHESGGGLVQAGGSLRLSCAASGTISVTYNMAWYRQAPGKERECVAGNSTGATTNYADSVKGRFTIRRDNAKNTVYLQMNSLKPEDTAVYYCAAHIYRQDHFYYWGQGTQVTVSS | low polyreactivity
2 | QVQLVESGGGLVQAGGSLRLSCAASGRIFGDNVMGWYRQPPGKERELVAAIRKSGGNTYYADSVKGRFTISRDNAKNTVYLHMNSLKPEDTAVYYCAARYPYLYGFVEYDYWGQGTQVTLSS | low polyreactivity
3 | QVQLVESGGRLVQAGGSLRLSSAPSGSIFFWYAMGWYRQAPGKERELVAAITQRTGSTYYADSVKGRFTISRDNAKNTVYLQMNSLKPEDTAVYYCAAKRLRRSFTGNYWGQGTQVTVSS | high polyreactivity
4 | QDQLVESVGGLVQAGGSLRLSCAASGSIFVRYAMGWYRQAPGKERELVAAISSDGNTYYADSVKGRFTISRDNAKNTVYLQMNSLKPEDTAVYYCAAKTRSRYYWGQGTQVTVSS | high polyreactivity
5 | QVQLVESGGGLVQAGGSLRLSCAASGCTFPRYAMGWYRQAPGKERELVAAISYSGGRTYYADSVKGRFTISRDNAKNTVYLQMNSLKPEDTAVYYCATEASTKRYDYWGQGTQVTVSS | high polyreactivity
6 | QVQLVESGGGLVQAGGSLRLSCAASGRIFSFYTMGWSRQAPGKERELVAAISNVGGTDYADSVKGRFTISRDNAKNTVYLQMNSLKPEDTAVYYCHAAWGRYFRYRWYTNGLDYWGQGTQVTVSS | low polyreactivity
7 | QVHLVESGGGLVQAGGILRLSCAASGFIFVRNAMGWYRQERGKEREFVAAINSSGGRTYYADSVKGRFTISRDNAKNTVYLQMNSLKPEDTAVYYCAARSQPKKFYYWGQGTQVTVSS | high polyreactivity
8 | QVQHVESGGGLVQAGGSLRLSCAASGRIFDSYAMGWYRQAPGKERELVATISWDSASTYYADTVKGRFTISRDNAKNTVYLQMNCLNPEDTAVYYCAAGGSSSWAFNYWGQGTQVTVSS | low polyreactivity
9 | QVQLVESGGGLVQAGGSLRLSCAASGSTFVWYAMGWYRQEPGKERELVAAINFGGTTYYADSVNGRFTISRDNAKNTVYLQMNSLKTEDTAVYYCATEYDYGSWYPDGWGIFDYWGQGTQVTVSS | low polyreactivity
10 | QVQLVESGGGLVQAGGSLRLSCAASGLTFPHNAMGWYRQAPGKERELVAAITSSGCSTYYADSVKGRFTISRDNAMNSVYLQMNSLKPEDTAVYYCAKRDGTDRLDDYWGQGTQVTVSS | high polyreactivity
11 | QVQLVESGGGLVQAGGSLRLSCAASGMIFVNAMGWYRQAPGKEREFVAAITYSTGSTYYADSVKGRFTISRDNAKNTVYLQMNSLKPEDTAVYYCAKDRSGHGTERDYWGQGTQVTVSS | low polyreactivity
12 | QDQLVESGGGLDQAGGSLRLSCAASGRILIIYAMGWYRQAPGKERELVARITYTGGRTYYADSVKGRFTISRDNAKNTVYLQMTSLKPEDTAVYYCATVWSRSDSSSHYDYWGQGTQVTVSS | low polyreactivity
13 | HVHQQGSGGGLAQARDSLRLSCAASGTNFSEYNNGLVSQGAGQRTRTCCRYWCWGNTYYADSAKGRLTSSRDNAKYNVDLQKNSLKPEDTAVYYCAFILPYPSRHIDRGQGTQVTVSS | high polyreactivity
14 | QVQLVESGGGLVQAGGSLRLSCAASGLTFVWYSMGWYRHAPGKERELVAGITSGGRTYYADSVKGRFTISRDNAKNTVYLQMNRLKPEDTAVYYCAAYGNYNEYDSWGQGTQVSVSS | high polyreactivity
15 | QVQLVESGGGLVQAGGSLRLSCAASGRTFFTNTMGWYRQAPGKERELVAAITRSGASTYYADSVKGRFTISRDNAKNTVYLQMNSLKPEDTAVYYCAAQRSKYSTVGKYGYWGQGTQVTVSS | high polyreactivity
16 | QVQLVESGGGLVQAGGSLRLSCAASGSTFWPYAMGWYRQAPVKERELVADISRRCGSTYYADSVKGRFTISRDNAKNTVYLQMNSLKPEDTAVYYCAKYPSAYVDSDVTYDMAYWGQGTQVTVSS | low polyreactivity
17 | KVQLVESGGGLVQAGGSLRLTCAASGRIFPYYAMGWYRQAPGKERELVASIRYSAGNTYYADSVKGRFTISRDNAKNTVYLQMNSLKPEDTAVYYCWYTQNTLGNYWGQGTQVTVSS | low polyreactivity
18 | QVQLVESGGGLVHAGGSLRISCAASGRTFQRNAMGWYRQAPGKERELVAAISGGGSTYYADSVKGRFTISRDNAKNTVYLQMNSLKPEDTAVYYCAASSATRLYYFSRGYDYWGQGTQVTVSS | low polyreactivity
19 | QVQLVESGGGLVQAGGSLRLSCAASGRTCGSNVMGWYRQAPGKERELVAAISRSGGSTHYADSVKGRFTISRDKAKNSVYLQMKSLNPEDTAVYYCAARYSGGSAYGYGSLGQGTQVTVSS | high polyreactivity
20 | QVQLVESGGGLVQAGGSLRLSCAASGRIFTYYAMGWYRQAPGKERELVAAISSGGSTYYADSVKGRFTISRDNAKNTVYLQMNSLKPEDTAVYYCAAEPWYYPYLSPTYGYWGHGTQVTVSS | low polyreactivity
21 | QVQLVESGGGLVQAGGSLRLSCADSGNIFYKYDMGWYRQAPGKERELVATISSDANTKYADSVKGRFTISRDNAKNTVYLHMNSLKPEDTAVYYCNVKDPVVRGALRDPTEYDSWGQGTQVTVSS | low polyreactivity
22 | QVQLVESGGGLVQAGGSLRLSCAASGSTFGYNTMGWYRQAPGKEREWVAAITGTGRTNYADSVKGRFTISRDNAKNTVYLQMNSLKPEDTAVYYCAASLWQRAIGRYEYWGQGTQVTVSS | high polyreactivity

Row | Sequence | polyreactivity (PSR sort gate)
23 | QVQLVESGGGLVQAGGSLRLSCAASGITFTGYSMGWYRQAPGKERELVAVISEKGGSTYADSVKGRFTISRDNAKNTVYLQMNSLKPEDTAVYYCAARLWWPYSTAWAKMDYWGQGTQVTVSS | low polyreactivity
24 | QVQLVESGGGLVQAGGSLRLSCAASGSIFAGYAMGWYRQAPGKERELVAAISRSGGRTYYADSVKRRFTISRDNAKNTVNLQMNSLKPEDTAVYYCAAHRRSANDYDYWGQGTQVTVSS | high polyreactivity
25 | QVQLVESGGGLVQAGGSLRLSCAASGIIFGTYAMGWYRQAPGKERDLVAAISSSGGSTYYADSVKGRFTISRDNAKNTVYLQMNSLKPEDTAVYYCAADGPSNHDYHWGQGTQVTVSS | high polyreactivity
26 | QVQLVESGGGLVQAGGSLRLSCAASGITFSRNAMGWYRQAPGKERELVATITSGGSTNYADSVKGRFTISRDNAKNTVYLQMNSLKPEDTAVYYCNAVWNTLISGRSYDYWGQGTQVTVSS | low polyreactivity
27 | QVQLVDSGGGLVQAGGSLRLSCAASGITLSWYAKGWYRQAPGQERELVAGISGRGGRTYYADSVKGRFTISRDNAKNTVYLQMNSLKPEDTAVYYCAAVSPGYRSYDYWGQGTQVTVSS | high polyreactivity
28 | QVQLVESGGGLVQAGGSLRLSCAASGRIFSDYAMGWYRQAPGKERELVAAISRSGTRTYYADSVKGRFTISRDNAKNTVYLQMNSLKPEDTAVYYCAAKTPYGRAGQEEDYWGQGTQVTVSS | high polyreactivity
29 | QVQLVESGGGLVQAGASLRLSCAASGFILYRYAMGWYRQAPGKERELVAAISRRGGSTYYADSVKGRFTISRDNAKNTVYLQMNSLKPEDTAVYYCAADARYTRYDYWGQGTQVTVSS | high polyreactivity
30 | QVQLVESGGGLVQAGGSLRLICAASGSIFNGYVMGWYRQAPGKERELVASINRGGTTNYADSVKGRFTISRDNAKNTVYLLMNSLKPEETAVYYCAVDDDANSLGGYYVLFDYWGQGTQVTVSS | low polyreactivity
31 | QVQLVESGGGLVQAGGSLRLSCAASGSIFYGNTMGWYRQEPGKERELVAPIRSVGRTYYADSVKGRYTISRDNAKNTVYLQMYSLKPEDTAVYYCAADPRSYFTSEYWGQGTQVTVSS | high polyreactivity
32 | QVQLVESGGGLVQAGGSLRFSCAASGRIFGRYAMGWYRQAPGKERELVAAISSTGGSTYYADSVKGRFTISRDNANNTVYLQMNSLKPEDTAVYYCATVWYGRYYWATEYWGQGTQVTVSS | high polyreactivity
33 | QVQLVESGGGLVQAGGSLRLSCAASGRIFGRYAMGWYRQAPGKEREFVAAISKRGGGTYYADSVKGRFTISRDNAKNTVYLQMNSLKPEDTAVYYCAVDNSPGFDDYDYWGQGTQVTVSS | high polyreactivity
34 | QVQLVESGGGLVQAGGSLRLSCAASGYISGVYPMGWYRQAPGKERELVAAITKRGGNTYYADSVKGRFTISRDNAKNTVYLQMNSLKAEDTAVYYCAKKTAGHPWGPIYDYWGQGTQVTVSS | high polyreactivity
35 | QVQLVESGGGLVQAGGSLRLSSAASGSIFYSYAMGWYRQAPGKERELVARMSSGGSTYYADSVKGRFTISRDNAKNSVYLQMNSLKPEDTAVYYCAAEALYYPYETYDYWGQGTQETVSS | high polyreactivity
36 | QVQLVESGGGLVQAGGSLPLSCAASGRIFYFNAMGWYRPAPGKEREFVASINSIGDSTYYADSVKGRFTISRDNAKKTVYLQMHSLKPEDTAVYYCNADHGVINYRLDYWGQGTQVTVSS | low polyreactivity
37 | QVQLVESGGGLVQAGASLRLSCAASGFTFTPYAMGWYRQAPGKEREMVAAISWGDGSTYYADSVKGRFTISRDNAKNTVYLQMNSLKPEDTAVYYCAADFDFYYDWIYYYWGQGTQVTVSS | high polyreactivity
38 | QVQLVETRGGLVQAGVSLRLICSASGSTFAPKSIGLYRQAPGKERELVAGLSWGDSTYYADSVKGRFTISRDNAKNTVYLQMISLKPEDTAVYFCAVRWVWNPCGIQGDWAVDYDYWGQGTQVTVSS | low polyreactivity
39 | QVQLVESGGGLVQAGGSLRLSCAASGGIFGTNDMGWYRQAPGKERELVAAITSDSGSTYYADSVKGRFTISRDNAKNTVYLQMNSLKPEDTAVYYCAAEDGPWFYRYGYWGQGTQVTVSS | low polyreactivity
40 | QVQLEETGRGLVQAGGSLRISSAASGGIFAHYVMGWYRQAPGKARELVAAISASGGSTYYADSVKGRFTISRDNAKNTVYLQMNSLKPEDTAVYYCAAYYLAWFADRYKTVGSAMDYWGQVTQVTVSS | low polyreactivity
41 | QVQLVESGGGLVQAGCSLRLSYAASGLTFRRNPLGWYRQAPGKERELVATITSVGSTNYADSVKGRFTISRDNAKNTVYLQMISLKPEDTAVYYCRTVTYGYWGQGTQVTVSS | high polyreactivity
42 | QVQLVDSGGGLVQAGGRLLLSCAASGRTFRKYTMGWYREAPGKERELVAAISSRGGSTYYADSVKGRFTISRDNAKYTVYLQMNSMKPEDTAVYYCDTDYITPSSEGDYWGQGTQVTVSS | high polyreactivity
43 | QVQLVESGGGLVQAGGSLRLSCAASGSTFLYYAMGWYRQATGKERELVAAIDSGGSTYYADSVKGRFTISRDNAKNTVYLQMNSLKPEDTAVYYCNADFADHWPPNGPGAHDYWGQGTQVTVSS | low polyreactivity
